T1: BL6 mouse SIRP-α (mouse (C57BL/6 strain), UniProt P97797 32-148)
T1 construct: also called C57BL/6
T1 sequence: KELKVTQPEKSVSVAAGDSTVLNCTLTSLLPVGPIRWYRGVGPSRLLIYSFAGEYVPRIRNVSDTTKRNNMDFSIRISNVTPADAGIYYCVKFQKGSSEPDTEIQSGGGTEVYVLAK

T2: BALBc mouse SIRP-α (mouse (BALB/c strain))
T2 chain: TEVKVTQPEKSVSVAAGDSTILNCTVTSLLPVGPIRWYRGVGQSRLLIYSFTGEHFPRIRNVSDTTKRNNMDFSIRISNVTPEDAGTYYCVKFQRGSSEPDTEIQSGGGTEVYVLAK

T3: cynomolgus SIRP-α (cynomolgus monkey, UniProt Q5TFQ8 30-148 (human entry), limits assumed)
T3 construct: also called cyno1
T3 chain: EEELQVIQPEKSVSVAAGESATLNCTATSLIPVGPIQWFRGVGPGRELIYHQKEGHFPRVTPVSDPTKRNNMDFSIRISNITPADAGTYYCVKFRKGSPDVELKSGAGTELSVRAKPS

T4: NOD mouse SIRP-α (mouse (NOD strain))
T4 chain: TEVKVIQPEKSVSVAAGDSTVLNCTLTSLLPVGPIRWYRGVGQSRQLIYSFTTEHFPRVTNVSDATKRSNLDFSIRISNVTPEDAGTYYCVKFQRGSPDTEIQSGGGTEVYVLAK

T5: mouse 129 SIRP-α (mouse (129 strain), UniProt P97797 32-150)
T5 construct: also called m129
T5 chain: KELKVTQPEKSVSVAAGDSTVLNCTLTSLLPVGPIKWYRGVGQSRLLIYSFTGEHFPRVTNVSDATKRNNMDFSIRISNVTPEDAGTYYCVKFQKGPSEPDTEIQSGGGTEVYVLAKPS

T6: high affinity SIRP-α D1 variant CV1-3
T6 chain: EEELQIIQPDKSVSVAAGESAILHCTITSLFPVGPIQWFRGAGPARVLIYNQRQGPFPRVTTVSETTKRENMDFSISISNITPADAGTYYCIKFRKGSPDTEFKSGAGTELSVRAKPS

T7: cynomolgus SIRP-α D1 domain (cyno2) (cynomolgus monkey, UniProt Q5TFQ8 30-148 (human entry), limits assumed)
T7 chain: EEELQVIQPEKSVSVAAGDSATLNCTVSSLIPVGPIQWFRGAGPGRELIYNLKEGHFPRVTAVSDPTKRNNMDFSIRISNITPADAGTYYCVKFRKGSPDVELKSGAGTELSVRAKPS

T8: C57BL/6 mouse SIRP-α D1 domain (mouse (C57BL/6 strain), UniProt P97797 32-148)
T8 sequence: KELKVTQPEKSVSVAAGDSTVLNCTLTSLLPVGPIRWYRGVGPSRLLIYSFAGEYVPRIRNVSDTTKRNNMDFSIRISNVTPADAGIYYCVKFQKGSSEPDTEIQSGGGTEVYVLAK

T9: mouse 129 SIRP-α D1 domain (mouse (129 strain), UniProt P97797 32-150)
T9 construct: also called m129
T9 chain: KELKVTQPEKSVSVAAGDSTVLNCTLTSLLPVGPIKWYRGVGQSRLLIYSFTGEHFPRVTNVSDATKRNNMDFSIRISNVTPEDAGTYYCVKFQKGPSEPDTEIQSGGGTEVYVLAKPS

B1: antibody 119 variant, light chain Mut / heavy chain wt (antibody, V domains shown)
VH: DVQLLESGGGVVQPGGSLRLSCAASGFSFSNFAMTWVRQAPGEGLEWVSTIGSGDTYYADSVKGRFTISRDNSKNTLYLQMNSLRAEDTAVYYCAKDSTVSWSGDFFDYWGLGTLVTVSS
VL: EIVLTQSPATLSVSPGERATLSCRASQNVKNDLAWYQQKPGQAPRLLIYAARIRETGIPARFSGSGSGTEFTLTISSLQSEDFAVYYCQQYYDWPPFTFGGGTKVEIK
B2: antibody 135 variant, light chain wt / heavy chain Mut (antibody, V domains shown)
VH: EVQLVESGGGVVQPGGSLRLSCAASGFSFSIYAVSWVRQAPGKGLEWVSTIGADDTYYADSVKGRFTISRDNSKNTLYLQMNSLRAEDTAVYYCAKDSTVGWSGDFFDYWGQGTLVTVSS
VL: EIVLTQSPATLSVSPGERVTFSCRASQNVRSDIAWYQQKPGQAPRLLIYAASSRDTGIPDRFSGSGSGTDFTLTISSLQSEDFGVYYCQQYYDWPPFTFGGGTKVEIK
B3: antibody 119 variant, light chain wt / heavy chain Mut (antibody, human IgG1, V domains shown)
VH: EVQLLESGGGVVQPGGSLRLSCAASGFSFSNFAVTWVRQAPGKGLEWVSTIGSGDTYYADSVKGRFTISRDNSKNTLYLQMNSLRAEDTAVYYCAKDSTVSWSGDFFDYWGQGTLVTVSS
VL: EIVLTQSPATLSVSPGERATFSCRASQNVKNDLAWYQQRPGQAPRLLIYAARIRETGIPERFSGSGSGTEFTLTITSLQSEDFAVYYCQQYYDWPPFTFGGGTKVEIK
B4: antibody 135 (antibody, V domains shown)
VH: DVQLVESGGGVVRPGESLRLSCAASGFSFSIYAMSWVRQAPGEGLEWVSTIGADDTYYADSVKGRFTISRDNSKNTLYLQMNSLRAEDTAVYYCAKDSTVGWSGDFFDYWGLGTLVTVSS
VL: EIVLTQSPATLSVSPGERVTFSCRASQNVRSDIAWYQQKPGQAPRLLIYAASSRDTGIPDRFSGSGSGTDFTLTISSLQSEDFGVYYCQQYYDWPPFTFGGGTKVEIK
notes: also called AB135; S135
B5: antibody 135 variant, light chain Mut / heavy chain wt (antibody, V domains shown)
VH: DVQLVESGGGVVRPGESLRLSCAASGFSFSIYAMSWVRQAPGEGLEWVSTIGADDTYYADSVKGRFTISRDNSKNTLYLQMNSLRAEDTAVYYCAKDSTVGWSGDFFDYWGLGTLVTVSS
VL: EIVLTQSPATLSVSPGERVTLSCRASQNVRSDIAWYQQKPGQAPRLLIYAASSRDTGIPARFSGSGSGTDFTLTISSLQSEDFGVYYCQQYYDWPPFTFGGGTKVEIK
B6: S163 (scFv, V domains shown)
VH: DVQLVESGGGLVRPGESLRLSCAASGFTFTNYAVTWVRQAPGEGLEWVSLISVTGTTYYADSVKGRFTISRDNSKSTLYLQMNGLRAEDTAVYYCAKVTWKNVFDYWGLGTLVTVSS
VL: EIVLTQSPGTLSVSPGERATFSCRASQTVGSKLAWYQQKPGQAPRLLIYDANTRATGIPARFSGSGSGTEFTLTISSLQSEDFAVYYCQQHTDWPPYTFGGGTKVEIK
B7: S162 (scFv, V domains shown)
VH: DVQLVESGGGLVRPGESLRLSCAASGFTFTNYAVTWVRQAPGEGLEWVSLISVTGTTYYADSVKGRFTISRDNSKSTLYLQMNSLRAEDTAVYYCAKVTWKNVFDYWGLGTLVTVSS
VL: EIVLTQSPGTLSVSPGERATFSCRASQTVGSKLAWYQQKPGQAPRLLIYDANTRATGIPARFSGSGSGTEFTLTISSLQSEDFAVYYCQQHTDWPPYTFGGGTKVEIK
B8: S164 (scFv, V domains shown)
VH: DVQLVESGGGLVRPGESLRLSCAASGFTFTNYAVTWVRQAPGEGLEWVSLISVTGTTYYADSVKGRFTISRDNSKSTLYLQMNGLRAEDTAVYYCAKVTWKNVFDYWGLGTLVTVSS
VL: EIVLTQSPGTLSVSPGERATFSCRASQTVGSKLAWYQQKPGQAPRLLIYDANTRATGIPARFSGSRSGTEFTLTISSLQSEDFAVYYCQQHTDWPPYTFGGGTKVEIK

How the values were obtained:
[1] = target: T1, BL6 mouse SIRP-α; experiment: SPR, antibody on GLC chip
How it was run: (§1)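 Protein A-purified antibodies were diluted to 80 nM in 10 mM sodium acetate pH 4.5 and amine-coupled (~1000 RU) to a GLC chip of a ProteOn XPR36 biosensor. SIRP analytes were injected one-shot at 100, 33, 11, 3.7, 1.2 and 0 nM in PBS pH 7.4 with 0.01% Tween-20 at 25° C. Association ran 90 s at 100 μL/min and dissociation 1200 s. KD came from double-referenced data fitted globally to a Langmuir model, as kd/ka.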

[2] = target: T10, human SIRP-α v1 (human, UniProt P78324 31-149); experiment: SPR, antibody on GLC chip
T10 construct: also called Human v1; Human V1
T10 sequence (P78324 31-149 limits assumed): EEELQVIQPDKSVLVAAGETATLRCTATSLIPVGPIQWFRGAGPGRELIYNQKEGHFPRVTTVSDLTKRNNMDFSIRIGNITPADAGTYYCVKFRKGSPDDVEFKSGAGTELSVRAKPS
How it was run: as §1

[3] = target: T2, BALBc mouse SIRP-α; experiment: SPR, antibody on GLC chip
How it was run: as §1

[4] = target: T3, cynomolgus SIRP-α; experiment: SPR, antibody on GLC chip
How it was run: as §1

[5] = target: T4, NOD mouse SIRP-α; experiment: SPR, antibody on GLC chip
How it was run: as §1

[6] = target: T11, human SIRPγ isoform 1 (human, UniProt Q9P1W8 29-147); experiment: SPR, antibody on GLC chip
T11 construct: also called Gamma; Human SIRPg
How it was run: as §1
T11 sequence (Q9P1W8 29-147 limits assumed): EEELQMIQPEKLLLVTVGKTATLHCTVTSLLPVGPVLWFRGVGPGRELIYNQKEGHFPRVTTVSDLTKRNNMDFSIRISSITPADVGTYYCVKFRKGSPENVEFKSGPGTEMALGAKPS

[7] = target: T12, human SIRP-α v2 (human); experiment: SPR, antibody on GLC chip
T12 construct: also called Human v2; Human V2
T12 sequence (chain, as listed by the source limits assumed): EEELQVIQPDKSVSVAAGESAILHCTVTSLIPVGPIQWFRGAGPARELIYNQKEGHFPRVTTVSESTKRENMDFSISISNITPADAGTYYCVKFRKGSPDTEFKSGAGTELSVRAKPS
How it was run: as §1

[8] = target: T10, human SIRP-α v1; experiment: SPR
How it was run: (§2)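 Runs took place at 25° C in PBS pH 7.4 containing 0.01% Tween-20 on a ProteOn XPR36 biosensor, with purified antibodies either amine-coupled to a GLC chip or captured through biotinylated Protein A on an NLC chip. SIRP analytes went in by one-shot kinetic injection at nominal concentrations based on A280 absorbance. Apparent rate constants came from a global simple Langmuir fit of double-referenced data, and KD was calculated as kd/ka.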

[9] = target: T12, human SIRP-α v2; experiment: SPR
How it was run: as §2

[10] = target: T5, mouse 129 SIRP-α; experiment: SPR Koff +/-
How it was run: as §2

[11] = target: T13, human SIRPβ isoform 1 (human, UniProt O00241 30-148); experiment: SPR Koff +/-
T13 construct: also called Beta; Human SIRPb
How it was run: as §2
T13 sequence (O00241 30-148 limits assumed): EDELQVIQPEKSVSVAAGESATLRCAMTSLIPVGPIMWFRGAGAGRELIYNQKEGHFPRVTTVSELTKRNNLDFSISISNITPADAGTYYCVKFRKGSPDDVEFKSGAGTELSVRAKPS

[12] = target: T14, human SIRP-α v2 D1 domain (human); experiment: SPR, Langmuir fit
T14 construct: also called human v2
T14 sequence (chain, as listed by the source limits assumed): as the sequence (chain, as listed by the source limits assumed) above
How it was run: (§3)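 Pre-filtered culture media supplied the scFv-Fc antibody clones, which were captured by anti-human IgG Fc amine-coupled (about 4000 RU) to a GLC chip on a ProteOn XPR36. SIRP analytes were flowed in PBS pH 7.4 with 0.01% Tween-20 at 25° C. Interspot and buffer-blank responses were subtracted from the data, which were then fitted to a 1:1 Langmuir model. Dissociation rate constants (koff) were derived from this fitting.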

[13] = target: T6, high affinity SIRP-α D1 variant CV1-3; experiment: SPR, Langmuir fit
How it was run: as §3

[14] = target: T7, cynomolgus SIRP-α D1 domain (cyno2); experiment: SPR, Langmuir fit
How it was run: as §3

[15] = target: T15, human SIRPβ isoform 1 (human, UniProt O00241 30-148); experiment: SPR, Langmuir fit
T15 construct: also called SIRPb; sirpb1
How it was run: as §3
T15 sequence (O00241 30-148 limits assumed): as the sequence (O00241 30-148 limits assumed) above

[16] = target: T16, human SIRP-α v1 D1 domain (human, UniProt P78324 31-149); experiment: SPR, Langmuir fit
T16 construct: also called human v1
T16 sequence (P78324 31-149 limits assumed): as the sequence (P78324 31-149 limits assumed) above
How it was run: as §3

[17] = target: T17, human SIRPγ isoform 1 (human, UniProt Q9P1W8 29-147); experiment: SPR, Langmuir fit
T17 construct: also called SIRPg; sirpg
How it was run: as §3
T17 sequence (Q9P1W8 29-147 limits assumed): as the sequence (Q9P1W8 29-147 limits assumed) above

[18] = target: T8, C57BL/6 mouse SIRP-α D1 domain; experiment: SPR
How it was run: as §3

[19] = target: T9, mouse 129 SIRP-α D1 domain; experiment: SPR
How it was run: as §3

| Binder | binding result [1] | Kd [2] [nM] | binding result [3] | Kd [4] [nM] | binding result [5] | Kd [6] [nM] | Kd [7] [nM] | Kd [8] [nM] | Kd [9] [nM] | binding result [10] | binding result [11] | koff [12] [s⁻¹] | koff [13] [s⁻¹] | koff [14] [s⁻¹] | koff [15] [s⁻¹] | koff [16] [s⁻¹] | koff [17] [s⁻¹] | binding result [18] | binding result [19] |
| --- | --- | --- | --- | --- | --- | --- | --- | --- | --- | --- | --- | --- | --- | --- | --- | --- | --- | --- | --- |
| B1 | no binding | 0.214 | no binding | 0.138 | no binding | 0.233 | 0.0864 | – | – | – | – | – | – | – | – | – | – | – | – |
| B2 | no binding | 0.184 | no binding | 0.125 | no binding | 0.779 | 0.0197 | – | – | – | – | – | – | – | – | – | – | – | – |
| B3 | no binding | 0.254 | no binding | 0.155 | no binding | – | 0.0694 | – | – | – | – | – | – | – | – | – | – | – | – |
| B4 | no binding | 0.151 | no binding | 0.0969 | no binding | 0.539 | 0.029 | 0.151 | 0.029 | no binding | binds | – | – | – | – | – | – | – | – |
| B5 | no binding | 0.149 | no binding | 0.102 | no binding | 0.522 | 0.0266 | – | – | – | – | – | – | – | – | – | – | – | – |
| B6 | – | – | – | – | – | – | – | – | – | – | – | 0.00664 | 0.00174 | 0.000242 | 0.0017 | 0.000535 | 0.00315 | no binding (tested: Koff > 5 × 10^3 (legend)) | no binding (tested: Koff > 5 × 10^3 (legend)) |
| B7 | – | – | – | – | – | – | – | – | – | – | – | – | 0.00152 | 0.000318 | – | – | – | no binding (tested: Koff > 5 × 10^3 (legend)) | no binding (tested: Koff > 5 × 10^3 (legend)) |
| B8 | – | – | – | – | – | – | – | – | – | – | – | 0.00989 | 0.00134 | 0.000408 | 0.00167 | 0.000595 | 0.00426 | no binding (tested: Koff > 5 × 10^3 (legend)) | no binding (tested: Koff > 5 × 10^3 (legend)) |
